Reference: patent publication US20220204569

Assays:
[1] = test system: TAL-HT x2 GFP fusion (Xanthomonas (engineered)); conditions: FRAP T1/2 2.91 ± 0.22 s (n = 5), live HeLa; nuclear CV 0.40, uniform localization as control
[2] = test system: TAL-HT x3 GFP fusion (Xanthomonas (engineered)); conditions: FRAP T1/2 6.30 ± 1.86 s (n = 5), live HeLa; nuclear CV 1.2
[3] = test system: TAL-HT x12 GFP fusion (Xanthomonas (engineered)); conditions: FRAP T1/2 67.84 ± 8.43 s (n = 4), live HeLa; nuclear CV 1.1
[4] = test system: GFP fusion, 0 TAL-repeats (control) (Xanthomonas (engineered)); conditions: FRAP T1/2 1.87 ± 0.28 s (n = 3), live HeLa; nuclear CV 0.53
[5] = test system: TAL-HT x8 GFP fusion (Xanthomonas (engineered)); conditions: FRAP T1/2 30.97 ± 6.79 s (n = 5), live HeLa; nuclear CV 0.87
[6] = test system: ChrocodiLE (TAL-HT x15 GFP fusion) (Xanthomonas (engineered)); conditions: FRAP T1/2 68.53 ± 8.45 s (n = 4), live HeLa; nuclear CV 1.1
[7] = test system: TAL-HT x1 GFP fusion (Xanthomonas (engineered)); conditions: FRAP T1/2 2.09 ± 0.40 s (n = 5), live HeLa; nuclear CV 0.45, uniform localization as control

HeLa nuclear genomic DNA (chromatin)
FRAP recovery half-time [1]: 2.91 s | FRAP recovery half-time [2]: 6.3 s | FRAP recovery half-time [3]: 67.8 s | FRAP recovery half-time [4]: 1.87 s | FRAP recovery half-time [5]: 31 s | FRAP recovery half-time [6]: 68.5 s | FRAP recovery half-time [7]: 2.09 s
